Experimental data reported in publication PMC8826744 (Microbiology Spectrum, 2022).

Target: T1, IgG4-Fc tagged rFOLR1 (Homo sapiens (assumed), UniProt P15328)
T1 construct: also called recombinant IgG4-Fc FOLR1; folate receptor alpha-1; source: CHO-S, transfected, purified (protein A)
Assay: ELISA; IgG4-Fc tagged rFOLR1 (2 ug/mL) coated on 96-well plates overnight; antibodies 50 nM to 0.048 nM, 1 h at 37 C; detected with HRP anti-human IgG1
Conditions: both partners purified

Binder | binding result
farletuzumab-IgG1 (antibody, V domains shown, IgG1; source: CHO-S, transfected, purified (protein A)) VH: EVQLVESGGGVVQPGRSLRLSCSASGFTFSGYGLSWVRQAPGKGLEWVAMISSGGSYTYYADSVKGRFAISRDNAKNTLFLQMDSLRPEDTGVYFCARHGDDPAWFAYWGQGTPVTVSS VL: DIQLTQSPSSLSASVGDRVTITCSVSSSISSNNLHWYQQKPGKAPKPWIYGTSNLASGVPSRFSGSGSGTDYTFTISSLQPEDIATYYCQQWSSYPYMYTFGQGTKVEIK | binds
farletuzumab-FuG1 (antibody, V domains shown, also called farletuzumab-FuGi) VH: EVQLVESGGGVVQPGRSLRLSCSASGFTFSGYGLSWVRQAPGKGLEWVAMISSGGSYTYYADSVKGRFAISRDNAKNTLFLQMDSLRPEDTGVYFCARHGDDPAWFAYWGQGTPVTVSS VL: DIQLTQSPSSLSASVGDRVTITCSVSSSISSNNLHWYQQKPGKAPKPWIYGTSNLASGVPSRFSGSGSGTDYTFTISSLQPEDIATYYCQQWSSYPYMYTFGQGTKVEIK | binds
